According to a protein production outcome set (Wang et al. 2014):

Assay: label from the status in PepcDB records

Sequence	protein production
MFHKALWMRQWKQGKYIILLFWLTSLYQLPYKYYQEAQTQLKLSKMKFGDYTYYYSYYFQTSDGAVFFQGATLIALACLLIGWERNNQSNDFLFSMPFKRKDIFLTKWWLGVLNIITVQIICLISMYGIKNMSFHNEYQTFAPFYSYFLYATVVLIAIYTFALFIGTITGHIFSQSILTIILLFLPYGFGLLISGFIYSHTQWSVDAMGEIEYHTHEYLQHIGIISPLEYFSITYDYHPIETFDDYGNKLPSVSQDNPTERISVPSPWTLLTPFSYIITFLSIATFLYTRTPNEQSGKILLFPNLQKWFIICTVLCFGLLGGRILGGRDALLSYYVGFFLFATISYFIFTRLLKLKFAFAGK	failed
MFHLIRWQDIADIIIMSFLAYRLYSWFRHTRAMQVLIGLGILAGVYFVTRNLGLFMTSWILQELGTVLFVLIIVVFQAEIRQALYRFSLLRTFIGRQEGGGELDLAELGRTVFGLARERTGALIVLQRQEALDDYLLHGVKVDGLPSSHLLGSIFRNGTPLHDGAVIIKDGRVSQASCHLPLSMKTELPQNFGTRHRAGIGLSERSDAVVIIVSEERGEVGMALAGEYRKIASPEEFAEVIQGLLYPQRPENVAFTLRQRLLRNLVPKIVTTLIVIAGWLVVTTKEGGIFTVTVPIKFHNLPPRSVLVKSVPESVEVQLKVFTSLIPSPRQLDLVADLNLAGVHDGVNSLAVKDDDLNLPLGVVVTGINPPMVKVTIAGKERKQLRVRPKLTGQLPGRAKLRSVTADPDTVVVEGPGHLLEGLESLPTETVDLAGLRRGGVVERRVVSPSPQIRVLRDEPVRVVVVTSVK	failed
MFIASFITGPFQTNCYLLAREQGSECVIVDLGMGAEEFLGDALRTHHLVPVAIAVTHGHIDHIGSARQVGDEYGIPVLCPRDDRHLLSDPMAGLSDFARPLIEQWYGSTTLREPEQVVDVEPFSHHQFANLDLEFLHAPGHTPGCSMIRTIDAEFGPIVMSGDVVFAGSIGRTDMPGGDPAQMSYSLSDVVWSLDDSTHVLPGHGGPTTMANERLTNPFLGRR	failed
MFIERLVALLLLFAGEFAYLRIADRFNIIDRPNQRSSHKKNVLRGGGIIFLLGVWMYAFLNTTGYPLFIGGMTLIASVAFIDDVCSLSPRFRFFVQFVAMFLLLQEAGMLVENKVWFLLPTMILGVCIINAYNFMDGINGMTGAFSLMVLFTFWLLNREMAFIDATLIELLMISALVFCFFNFRNQAICFAGDVGSVGMAYCVIFILLKLVLFTGNVTYLLFLVVYGIDTVLTIFHRLLLHENLLQPHRKHLFQLLANEGGHSHVTVSITYVLLQLAISLGYIYLPIDKWLYSVIVTIGLVTAYLIIERKLYPKHKEYLKSLSCAVMDEGYSEKCLRNEN	failed
MFIGIYNRSVIVTYMGIASAMVGMYLADKHDIRYAILCLVIAGVCDLFDGKIARMCKRTEDEKLFGIQLDSLADVICFSALPISIFYGLGLNKWYHVVIYTAFTLAAITRLGFFNIKVMDSNRDKPVDYYSGLPVTCSAMIFPLFWLLSFCLDRHIFLLIYTIIIAVVAFLFVANIKIKKPKGIAYGVFVVLAVLMSLGIIFIGV	failed
MFIIIGDLIAFVISVLVTLIIASVPVWVAAKIVAKRSTFGQAVAATLLSLIIFFILLFVFSIFTPFIGGIFGFIGALWVFRKVYNIGWVDSLALTIIAIFIAIMIYIILGAFLFPVIHTSMIHEHAVVTSIIV	failed
MFIPAAQSAYRTLRKTQPRVRLNAIFKNGYSSKVEYKPIRSVLVANRGEIAIRVFRACTELGIKSVAVYSEQDKMHMHRQKADESYIVGKGLPPVEAYLNIPELIRVCKENDVDAVHPGYGFLSERSDFAQAVIDAGLRFIGPSPEVVQKMGDKVAARVAAIEAGVPIVPGTDGPVTTKEEALEFCKKHGLPVIFKAAYGGGGRGMRVVRKMEDVEESFQRASSEAKAAFGNGAMFIEKFIERPRHIEVQLLGDKAGNVVHLYERDCSVQRRHQKVVEIAPAPRLPIEIRDKMTEAAVRLARHVGYENAGTVEFLCDESGNFYFIEVNARLQVEHTVTEEITGIDLVQSQIRVAEGMTLPELGYTQDKIVPRGYAIQCRVTTEDPANDFQPNTGRLEVFRSGEGMGIRLDSASAYAGAIISPYYDSLLVKVISHASDLQSSASKMNRALREFRIRGVKTNIPFLLNVLENQKFLHGVLDTYFIDEHPQLFKFKPSLNRAQKLLNYMGEVLVNGPQTPLATTLKPALVSPHVPEVPLDLSPEAIEREERGEAKVTEPPKGLREVLVCEGPEAFAKEVRNRKELLLMDTTFRDAHQSLLATRVRSHDLLKISPYVTHKFNNLYSLENWGGATFDVALRFLHECPWERLEEMRKRIPNIPFQMLLRGANAVGYTSYPDNVVYKFCELAVQTGMDIFRVFDSLNYLPNLILGMEAAGKAGGVVEAAISYTGDVSDPKRTKYDLKYYTNLADELVKAGTHVLCIKDMAGLLKPESARLLITAIRDKHPDIPIHIHTHDTSGAGVASMLACANAGADVVDVAVDSMSGMTSQPSMGAVVASLQGTPLDTNLDLRTVSEYSAYWEQTRTLYAPFECTTTMRSGNADVYLNEIPGGQYTNLQFQAFSLGLGDFFEDVKKAYREANLLLGDIIKVTPSSKVVGDLAQFMVQNDLTADQVLERAEELSFPKSVVEYLQGSIGIPHGGFPEPLRSRVLKDMPRIEGRPGAELKDLDFDKLKKELQESHTCVTNRDVMSAALYPQVTNDFLNFREKYGPVDKLDTRIFLTGPKVGEEFDVPLERGKTLSVKALAVSADLKPNGIREVFFELNGQLRAVHILDKEAVKEIHVHPKANKSNKSEVGAPMPGTVIDIRVKVGDKVEKGQPLVVLSAMKMEMVVQSPLAGVVKKLEIANGTKLEGEDLIMIIE	failed
MFIREEEQMKRMIITIGRQSGSSGRKVGELLAERLSLPLYGKAELQKIAEGTDDYEEVQAFYEEEPVNSLLYAIAMSQFEQEVGRIPFQRIRELASKESCIIIGRCAGHIFREDPEAVRVFIHADPKIRVQRIMEREGLSETKAKKFLEDTDSRRASFHKYYTKQEWGLAQDYELCLDSGVLGIEGTVEVLTEYLRFRGFLGNE	failed
MFISCIILINYSYIFGKNIRYLYEFKVIWKSNNSLILFFIEFDRNFMTIKFKLFKCRRLNILIELINIENYFRNGNILCFIFNIPSIPRNLLINVFLTSSNKVNISIQGLKLEHHHHHH	failed
MFITTEGINAGYTIKDVVEATSSLMLASEDIDKYNMFDQLFDEAKQKLKKKADLLEGDGIIGLKYNTEVVEVNGAPKFLVVHGYGTVILIDK	not failed
MFKGDMNKKRAKALQKVKEAITLHGGQTILSTGITGDDARLAKAVCEAGVKLLEPNHPALALARGHKGVSNMHAAEQIRHEITNSQMAEAVHGVRNVVPDDIFITVGIAGGFTETLPVPLSEKEILEIARAGADGLHTHKSDWDDLQDIVNLAHQYGLTVDAYIGHPDDLHTFGIPARTPEEVASVAKRMQDIGVDMIGLMTGMSYEGVAAGDIPQMIKDRLRALVGAVDVPTLAEGGINLANAKAFKDTGVNILVVGTAIDNMVCNAAKEAVTPFIVH	not failed
MFKPEEMVKIELISLARYRDIIMTYLHERGVVQLEEVPIEDIQHDAPNEYYRKATSYSITMGRLVDTLKGFLPPRKTSIKEFIFPKEREKRVYTYRGIEDLVKDVEKFLSEVEPKIREVETQLTAINNRIANIREIINTLELLSSLNIEIEYLIPGSFLAIEVGKIERERVEKLIGELKNELGDKVFILRRDLGTISLLVVVTLKEFQGKLTSILAKYGFEKVEIPRERGHPRELIPKYNELLKEEMKKLEEIRKKGREFAEKYYEDLVFYKELMDNERDKANYLSYLARTELTVALVGWLPKKNVEEVVEGIKNLTGGKVYINIREPEPNEIEEVPVKLKNPEFISQFEMLTEMYGVPKYNELDPTPILAFTYSFFFGFMLTDFMYGLLLGIVSALLVKGHSKMKDGTWKFAKIMLWSSVFTMLLGALFGSYFGNALDMAGFKVPRIMDAMEEALTVLIIALAIGLGHLFTGYVLGFIVKWKNGDKVGAILDQLSWILIILGVTLFAISSRIDLPKLAWMSVFGAGAVLFIIGEFKNNGLMALLLVISDFFGFVGNWLSYARLMALALATAGIALVINIMVQMIWGFKIGPVPLGIIVGAIVFIGGHIFSTAINALGAFVHALRLHYVEFFGTFYSGEGRRFEPFAARREISELKIEKPGGE	failed
MFKVLQCLTIDHDYRYTAAAVVVCMLGSFVTMRLFSKARLATGLQKVNWLFLAGVNGGAAIWTTHFVAMLGYVAAGDVGYDPYLTGLSLLIAITTTTAGFGISAYGGRSVLVEAGGTILGLGIAAMHYTGMAAYNVQGMIFWDQAYVIASLVLGSVLGAIAVNRIARPLNRFCQYSAVAFLILAIASMHYTGMASMSFAFDPRIIIPENLLPPAIMGGGAIAVTLLLLALGLSTYVIDAQSTQQAVARYRHLSLHDPLTGIPNRAAFIEHLNRRTRHISMGAHTALLSIDLDRFKEINDVHGHAAGDAVLRAIADRASSVLKAGEFLARMGGDEFVAMTHSYYTRADGAEFAQRLIEQISKPVEWNGQTFSVGASVGISVRNTGSIDADTLMAQADVAMYRAKSATSDTICFYDKSMDEAARARNALAIAMRSGLANNEFELYYQQQNDTKSGSIVGFEALLRWKHPERGMVSPVEFIPIAEQTGFIVELGEWVLREACAQAARWKKSLAIAVNVAPQQLADNDFPDKVERILAETGLAPERLELEITEGSIIADHRHALVTIRKLKSLGVKIAMDDYGTGYSSLSTLQSFPFDKIKIDRAFIDGLSTNVQSEAIVRSTLILAHSLNIPVLAEGVETKAHIEFLRREGCLQVQGFFFGKPGPLTSIANLVDDTFLSAEDETEEASGRRYIKVVR	failed
MFLGELTERPVSLYAAAVLRIGYGLLYLAFLLREFPHRDEIWGPGSPWTPELARQLFDQTGWVSILTLSDGRAYFEACYALALVTCALFLLGWRTRAVSVLFAVVVASFHARAIFMTDGGDNLVLLMAVYLVFTACGRRWSLDARRTRLRAGASPAASPPARQEADGFRRQLGASRRTLTAVLHNCGMFVIAAQVCFLYGSAGLYKVQGGSWGNGTALHYVLNLDLFRPWPELSLLTDEHDVLMAIACYLTVLLQVAFPFVLFGRLKYPVLTVLLGMHLGIAVLLGLPLFSGAMIVADAVFLPDRCYLLLGRLWRRAGRRTGSTEAGAPARGESAFLPPQSAVSSPRTAAAPVRGRRA	failed
MFLKKGKKKLYKSGKNWVAALLLSAAVLSFYSAGLNQQTASAATSSQTKAVSYDKITNKQTVNYSAYVNENNRNDGLYSAPALTDVASMTSTGSAKSLNGHLVMVSEIDTTKRASTGVSYQYAKITDNNKSYWVDLRALNDSAQITSTQTVNFQAYINGDTRNDGLYSAPALTTSSSLTPLAYSKSLNKKSVMVSEINTTKRASTGLSYQYAKITYNGKTYWVDARAVFDSITSKQTNLNYYATISETNRNDGIYEEPALTSLASMASTGSVKTFDQDSVEVLEIDTTFRNSNDQKYQYAKVTNGTNTYWVDVRALNTSGFAKITSSKTEDYSAYINEANRKDSIYDNGPALTSPTTLTASALAKTVNGDQVEVIALDTTTRSNGSQYTYLEVKDGSNTYWIDSRAVTAYNFDSITNQQTVNETATINEGGRSDGLYNAPALTSPSSLTSTGSAKDLDGQTVTILEIDTTKRASNGNTYQYAKIAYNGKTYWVDARALNNSTYSGAIMVNFEDENGNQLASPIEYTGKIGSTYQPEPKAITGYSVDLAKTGSIDLTYSSTTQTITYIYEKSTATTTDLINGQGQGIDNDSWTVGSDVQPGWYKITPIGLGTDDNIVLNVEGSDSSDLPLANDISGAWFGSDSSAGEISSYQAYLTAGQVIEMQDNGTDAAAGQGLHLETLSTRPATSLIDPESPIPSSFQDLGAGIYEVGVDIRPGNYQVADILGEGYLYTDDGTVSLDLGTGHGDTSTGTITLTTGELLTSTINGISLEPEN	failed
